The chains are these.
B1: HDV Ribozyme (parent)
chain: GGCCGGCAUGGUCCCAGCCUCCUCGCUGGCGCCGGCUGGGCAACAUUCCGAGGGGACCGUCCCCUCGGUAAUGGCGAAUGGGACCCA

Data on 167 variants can be found in the RNAGym collection of RNA variant scans (doi:10.7554/elife.80360).

The variants in the data set derive from B1. The experiment in a line: self-cleavage, relative activity (ratio to wild type); higher = more cleavage; co-transcriptional.
With A45C G50A, the self-cleavage amounted to 0.785.
Consider A45C G50U, for which the self-cleavage came out at 0.494.
As for A45C U47A, the self-cleavage is 0.911.
Turning to C44G G68A, the self-cleavage was determined as 0.677.
On to C44G G68U, for which the self-cleavage came to 0.399.
As for C44G C86G, the self-cleavage was found to be 0.499.
With C44G C86A, the self-cleavage turned out to be 0.767.
In the case of A45G, the self-cleavage amounted to 0.918.
On to A45C, for which the self-cleavage was 0.702.
A45U: the self-cleavage amounted to 0.832.
Regarding C44A U47A, the self-cleavage was found to be 0.965.
On to C44A U47C, for which the self-cleavage was 0.831.
As to C44A U47G, the self-cleavage is 0.906.
A45C G81A: the self-cleavage is 0.0959.
As to A45C G81U, the self-cleavage was 0.262.
The value for C44U C57U was 0.704; that for C44U C57G was 0.612; that for A45U A77C was 0.155.
The value for A45U A77U was 0.322.
The value for A45U A77G was 0.609; that for C44U G76U was 0.847; that for C44U U60G was 0.686.
On to C44U A71C, for which the self-cleavage is 0.851.
C44U A71U: the self-cleavage is 0.972.
Regarding C44U A71G, the self-cleavage was 0.95.
In the case of C44G C75U, the self-cleavage was 0.0627.
In the case of C44G C75G, the self-cleavage was determined as 0.256.
C44U U65C: the self-cleavage turned out to be 0.61.
Consider C44U U65A, for which the self-cleavage amounted to 0.846.
As for C44A G68U, the self-cleavage was determined as 0.554.
Take C44A G68C: the self-cleavage was determined as 0.764.
In the case of C44G G67A, the self-cleavage came to 0.65.
In the case of C44G G67U, the self-cleavage worked out at 0.68.
In the case of A45G A51C, the self-cleavage came to 0.987.
As for A45C A78U, the self-cleavage turned out to be 0.229.
The value for A45C A78G was 0.178; that for A45G G73U was 0.415; that for A45G G73C was 0.388.
For A45U A70U, the self-cleavage turned out to be 0.989.
In the case of C44G G82A, the self-cleavage amounted to 0.309.
With C44G G82C, the self-cleavage came out at 0.0504.
The value for A45G C61G was 0.467.
A45G C61U: the self-cleavage turned out to be 0.888.
On to A45G C61A, for which the self-cleavage worked out at 1.15.
In the case of A45G U79A, the self-cleavage is 0.755.
The value for A45G U79C was 0.674; that for C44U C66U was 0.817.
With C44G C58A, the self-cleavage is 1.07.
Consider A45G G80A, for which the self-cleavage came out at 0.177.
As to A45U C49A, the self-cleavage was determined as 0.748.
Consider A45U C49G, for which the self-cleavage stood at 0.458.
Regarding C44G C64G, the self-cleavage came out at 0.678.
The value for A45C U72C was 0.481; that for C44G G53U was 0.939.
With A45C G59C, the self-cleavage is 0.696.
As to A45C G59A, the self-cleavage was 0.704.
Take A45C C75G: the self-cleavage was found to be 0.237.
Turning to A45C C75A, the self-cleavage came to 0.
With A45C C75U, the self-cleavage amounted to 0.201.
For the variant C44U G68C, the self-cleavage worked out at 0.529.
Consider C44U G68U, for which the self-cleavage came out at 0.607.
The value for C44U G68A was 0.681.
For the variant C44G C66A, the self-cleavage came out at 0.692.
Consider C44G A87C, for which the self-cleavage is 0.621.
The value for C44G A87G was 0.641; that for C44G C57A was 0.944; that for C44G C57U was 0.745.
For C44G C57G, the self-cleavage is 0.458.
For A45C C57U, the self-cleavage amounted to 0.73.
On to A45C C57A, for which the self-cleavage came to 0.504.
A45G A71U: the self-cleavage is 0.997.
Regarding C44G A45G, the self-cleavage was 0.503.
On to C44G A45U, for which the self-cleavage worked out at 0.776.
In the case of A45C A51C, the self-cleavage was determined as 0.875.
For the variant A45C G67U, the self-cleavage turned out to be 0.604.
For A45C C49G, the self-cleavage is 0.492.
Regarding A45C C49U, the self-cleavage was 0.831.
The value for A45U G74A was 0.513.
The value for A45C C64U was 0.73; that for A45C C64A was 0.426; that for C44U G81C was 0.0923.
The value for C44U G81U was 0.212; that for C44U U46C was 0.571.
In the case of C44U U46G, the self-cleavage came to 0.712.
Take C44U C62A: the self-cleavage came to 0.665.
Turning to A45U G50C, the self-cleavage came to 0.767.
Turning to A45U G50A, the self-cleavage is 0.844.
For the variant C44G C63U, the self-cleavage stood at 0.81.
With C44G C63A, the self-cleavage worked out at 0.491.
Take C44U U79A: the self-cleavage was determined as 0.688.
As for C44U U79C, the self-cleavage amounted to 0.269.
As to A45U C57U, the self-cleavage came out at 0.712.
In the case of A45U G73C, the self-cleavage was 0.62.
For A45U C62A, the self-cleavage worked out at 0.791.
As for A45U C62U, the self-cleavage was 0.923.
Turning to A45U G54U, the self-cleavage came out at 0.8.
Consider A45U G54C, for which the self-cleavage was found to be 0.849.
Turning to C44G A83C, the self-cleavage turned out to be 0.284.
The value for C44G A83U was 0.38; that for C44G C61G was 0.441; that for A45U G55A was 0.594.
For C44U C64U, the self-cleavage is 0.876.
On to C44U C64A, for which the self-cleavage amounted to 0.408.
Regarding A45G C64G, the self-cleavage amounted to 0.591.
The value for A45G C64U was 0.889; that for A45C G73C was 0.424; that for A45C G54C was 0.653.
In the case of A45C G54U, the self-cleavage amounted to 0.95.
As to A45G C62G, the self-cleavage was 0.587.
On to A45U C63A, for which the self-cleavage is 0.784.
As for A45U C63U, the self-cleavage was found to be 0.856.
With A45G C86A, the self-cleavage stood at 0.639.
Regarding A45G C86G, the self-cleavage came out at 0.95.
For A45U A56U, the self-cleavage came to 0.831.
As to A45U A56G, the self-cleavage amounted to 0.806.
As for C44A U65A, the self-cleavage worked out at 0.95.
As to A45G A77G, the self-cleavage came to 0.867.
Regarding A45G A77C, the self-cleavage worked out at 0.18.
With C44U G82C, the self-cleavage was found to be 0.0723.
In the case of A45G G76C, the self-cleavage came to 1.07.
Consider A45G G76A, for which the self-cleavage amounted to 0.959.
As for A45C C86A, the self-cleavage stood at 0.95.
On to A45C C86G, for which the self-cleavage came out at 0.465.
Consider A45C G53U, for which the self-cleavage amounted to 0.712.
For A45C G53A, the self-cleavage was 0.564.
The value for C44A U72C was 0.467; that for C44A U72A was 0.733; that for A45U C75A was 0.277.
For the variant A45U C75G, the self-cleavage is 0.133.
In the case of A45U C75U, the self-cleavage was determined as 0.321.
As for A45U G68U, the self-cleavage came out at 0.845.
For C44G C48A, the self-cleavage was found to be 0.543.
On to C44G C48U, for which the self-cleavage amounted to 0.517.
The value for C44G U72G was 0.446.
Regarding C44G U72A, the self-cleavage was 0.229.
With C44A U79C, the self-cleavage worked out at 0.122.
The value for C44A U79A was 0.244; that for C44G G55C was 0.898; that for C44G G55U was 0.65.
In the case of C44U G67A, the self-cleavage stood at 0.82.
The value for A45C U46G was 0.554; that for A45C U46C was 0.403.
As for A45G G68C, the self-cleavage was 0.767.
In the case of A45U C64U, the self-cleavage stood at 0.764.
As to A45U C64A, the self-cleavage was found to be 0.882.
The value for A45C G52C was 0.752.
A45C G52A: the self-cleavage worked out at 0.684.
Turning to A45C G52U, the self-cleavage turned out to be 0.697.
On to C44G U60A, for which the self-cleavage amounted to 0.798.
Take C44G U60C: the self-cleavage was 0.569.
For C44G U60G, the self-cleavage came out at 0.76.
The value for A45G G54U was 1.17; that for A45G C49G was 0.831; that for A45G C49U was 1.24.
For A45G C49A, the self-cleavage is 0.872.
With A45C G74U, the self-cleavage is 0.369.
Consider C44A G81U, for which the self-cleavage is 0.203.
The value for A45G A87G was 0.868.
For A45G A87C, the self-cleavage was found to be 1.11.
With C44U C48G, the self-cleavage came out at 0.567.
On to A45U C85A, for which the self-cleavage was 0.88.
As for C44U A70C, the self-cleavage amounted to 0.831.
For the variant A45G U72G, the self-cleavage came to 0.68.
Consider C44U G55C, for which the self-cleavage amounted to 0.882.
Consider C44U G55A, for which the self-cleavage was 0.831.
With A45C G82U, the self-cleavage stood at 0.397.
With A45C G82C, the self-cleavage turned out to be 0.256.
